Patent US20120201781A1 (AbbVie / Abbott, published 2012)

T1: murine IL-1β (mouse, UniProt P10749 118-269)
T1 construct: also called mIL-1β; mouse IL-1β
T1 sequence (looked up): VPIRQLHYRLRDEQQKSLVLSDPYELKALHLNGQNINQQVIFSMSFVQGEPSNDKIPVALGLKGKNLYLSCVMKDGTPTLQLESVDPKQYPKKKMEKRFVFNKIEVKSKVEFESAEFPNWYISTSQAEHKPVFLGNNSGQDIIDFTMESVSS

T2: murine IL-1α (mouse, UniProt P01582 115-270)
T2 construct: also called mIL-1α; mouse IL-1α
T2 sequence (looked up): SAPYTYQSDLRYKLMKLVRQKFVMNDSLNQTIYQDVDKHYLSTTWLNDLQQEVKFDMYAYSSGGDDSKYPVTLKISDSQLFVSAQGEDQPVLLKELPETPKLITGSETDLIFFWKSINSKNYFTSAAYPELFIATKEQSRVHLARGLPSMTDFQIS

T3: recombinant human IL-1α (human, UniProt P01583 113-271)
T3 construct: Purified recombinant protein bought from R&D Systems; also called hIL-1α; rhIL-1α
T3 sequence: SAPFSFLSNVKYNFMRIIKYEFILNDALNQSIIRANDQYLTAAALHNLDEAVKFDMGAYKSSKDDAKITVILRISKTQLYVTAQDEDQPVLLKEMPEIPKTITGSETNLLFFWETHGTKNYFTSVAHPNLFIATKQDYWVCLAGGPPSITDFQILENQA


Legend:
murine IL-1β [1] = target: T1, murine IL-1β; assay: affinity, method not named for this table (Biacore elsewhere)
murine IL-1α [2] = target: T2, murine IL-1α; assay: as above
murine IL-1β [3] = target: T1, murine IL-1β; assay: cell-based or functional assay
murine IL-1α [4] = target: T2, murine IL-1α; assay: cell-based or functional assay
recombinant human IL-1α [5] = target: T3, recombinant human IL-1α; assay: SPR (Biacore), hIL-1α as 1st antigen
Method: (§1) In addition, tetravalent dual-specific antigen binding of DVD-Ig binding protein was also analyzed by Biacore (Table 14). DVD-Ig binding protein was first captured via a goat anti-human Fc antibody on the Biacore sensor chip, and the first antigen was injected and a binding signal observed. As the DVD-Ig binding protein was saturated by the first antigen, the second antigen was then injected and the second signal observed. This was done either by first injecting IL-1β then IL-1α or by first injecting IL-1α followed by IL-1β for DVD2-Ig binding protein. In either sequence, a dual-binding activity was detected. Similar results were obtained for DVD1-Ig binding protein. Thus, each DVD-Ig binding protein was able to bind both antigens simultaneously as a dual-specific tetravalent molecule. […] Upon the injection of the second antigen, while DVD-Ig binding protein was already occupied by the first antigen, the stoichiometry of both DVD-Igs binding protein to the second antigen (i.e., hIL-1α or hIL-1β was between 1.0 and 1.3. Thus, DVD-Ig binding protein was able to bind two IL-1α and two IL-β molecules. DVD-Ig binding protein was first captured via a goat anti-human Fc antibody on the Biacore sensor chip, and the first antigen was injected and a binding signal observed, followed by the injection of the second antigen.

recombinant human IL-1α [6] = target: T3, recombinant human IL-1α; assay: cell-based or functional assay
recombinant human IL-1α [7] = target: T3, recombinant human IL-1α; assay: SPR (Biacore), hIL-1α as 2nd antigen after hIL-1β
Method: as §1

recombinant human IL-1α [8] = target: T3, recombinant human IL-1α; assay: cell-based or functional assay; remark: listed apart in the source
recombinant human IL-1β [9] = target: T4, recombinant human IL-1β (human, UniProt P01584 117-269); assay: cell-based or functional assay
recombinant human IL-1α [10] = target: T3, recombinant human IL-1α; assay: SPR (Biacore)
Method: (§2) The equilibrium dissociation constant (M) of the reaction between DVD-Ig molecule and rhIL1α/β was then calculated from the kinetic rate constants by the following formula: KD=koff/kon. Aliquots of rhIL1α/β samples were also simultaneously injected over a blank reference and reaction CM surface to record and subtract any nonspecific binding background to eliminate the majority of the refractive index change and injection noise. Surfaces were regenerated with two subsequent […] injections of 10 mM Glycine (pH 1.5) at a flow rate of […]. The anti-Fc antibody immobilized surfaces were completely regenerated and retained their full capture capacity over twelve cycles. The apparent stoichiometry of the captured DVD-Ig-rhIL1α/β complex was calculated under saturating binding conditions (steady-state equilibrium) using the following formula: […]
(§3) The affinity of the two DVD-Ig binding proteins to hIL-1 as compared to the affinity of chimeric antibodies to hIL-1 was similar as indicated by the evaluation of the stoichiometry to IL-1. Both chimeric antibodies, being bivalent monospecific, bound to IL-1α and IL-1β on Biacore with a stoichiometry of 1.6 and 1.7, respectively. This is common for an IgG due to inter-molecular interference when antibodies are immobilized densely on the Biacore sense chip resulting in stoichiometry being in the range from 1.5 to 2.0.

recombinant human IL-1α [11] = target: T3, recombinant human IL-1α; assay: SPR (Biacore 3000), binder captured via goat anti-human IgG Fc
Method: (§4) Approximately, 5000 RU of goat anti-human IgG Fcγ fragment specific polyclonal antibody (Pierce Biotechnology Inc, Rockford, Ill.) diluted in 10 mM sodium acetate (pH 4.5) was directly immobilized across a CM5 research grade biosensor chip using a standard amine coupling kit according to manufacturer's instructions and procedures at […]. Unreacted moieties on the biosensor surface were blocked with ethanolamine. Modified carboxymethyl dextran surface in flowcell 2 and 4 was used as a reaction surface. Unmodified carboxymethyl dextran without goat anti-human IgG in flow cell 1 and 3 was used as the reference surface. For kinetic analysis, rate equations derived from the 1:1 Langmuir binding model were fitted simultaneously to association and dissociation phases of all ten injections (using global fit analysis) using the Bioevaluation 4.0.1 software. Purified DVD-Ig samples were diluted in HEPES-buffered saline for capture across goat anti-human IgG Fc specific reaction surfaces and injected over reaction matrices at a flow rate of […]. The association and dissociation rate constants, kon (M-1s-1) and koff (s-1) were determined under a continuous flow rate of 25 ml/minute. […] The equilibrium dissociation constant (M) of the reaction between DVD-Ig molecule and rhIL1α/β was then calculated from the kinetic rate constants by the following formula: KD=koff/kon. Aliquots of rhIL1α/β samples were also simultaneously injected over a blank reference and reaction CM surface to record and subtract any nonspecific binding background to eliminate the majority of the refractive index change and injection noise. Surfaces were regenerated with two subsequent […] injections of 10 mM Glycine (pH 1.5) at a flow rate of […]. The anti-Fc antibody immobilized surfaces were completely regenerated and retained their full capture capacity over twelve cycles. The apparent stoichiometry of the captured DVD-Ig-rhIL1α/β complex was calculated under saturating binding conditions (steady-state equilibrium) using the following formula: […]

recombinant human IL-1β [12] = target: T4, recombinant human IL-1β; assay: as above
Method: as §4

recombinant human IL-1β [13] = target: T4, recombinant human IL-1β; assay: SPR (Biacore), hIL-1β as 1st antigen
Method: as §1

recombinant human IL-1β [14] = target: T4, recombinant human IL-1β; assay: SPR (Biacore), hIL-1β as 2nd antigen after hIL-1α
Method: as §1

recombinant human IL-1α [15] = target: T3, recombinant human IL-1α; assay: SPR (Biacore 3000), saturating binding
Method: as §2, with “The association and dissociation rate constants, kon (M-1s-1) and koff (s-1) were determined under a continuous flow rate of 25 ml/minute. […] The equilibrium” for “The equilibrium”
as §3

recombinant human IL-1β [16] = target: T4, recombinant human IL-1β; assay: SPR (Biacore 3000), saturating binding
Method: as §2, with “The association and dissociation rate constants, kon (M-1s-1) and koff (s-1) were determined under a continuous flow rate of 25 ml/minute. […] The equilibrium” for “The equilibrium”
as §3

Row | Kd (murine IL-1β [1]) [nM] | Kd (murine IL-1α [2]) [nM] | IC50 (M), in vitro potency (murine IL-1β [3]) [M] | IC50 (M), in vitro potency (murine IL-1α [4]) [M] | Stoichiometry hIL-1α:DVD-Ig (recombinant human IL-1α [5]) | neutralizing activity in MRC-5 bioassay, fold less than the chimeric antibodies (recombinant human IL-1α [6]) [fold] | Stoichiometry hIL-1α:DVD-Ig (recombinant human IL-1α [7]) | Potency (IC50) M, MRC-5 bioassay (recombinant human IL-1α [8]) [nM] | Potency (IC50) M, MRC-5 bioassay (recombinant human IL-1β [9]) [nM] | fold lower affinity than the chimeric 3D12.E3 antibody (recombinant human IL-1α [10]) [fold] | Kd (recombinant human IL-1α [11]) [nM] | koff (recombinant human IL-1α [11]) [s⁻¹] | kon (recombinant human IL-1α [11]) [M⁻¹ s⁻¹] | Kd (recombinant human IL-1β [12]) [nM] | koff (recombinant human IL-1β [12]) [s⁻¹] | kon (recombinant human IL-1β [12]) [M⁻¹ s⁻¹] | Stoichiometry hIL-1β:DVD-Ig (recombinant human IL-1β [13]) | Stoichiometry hIL-1β:DVD-Ig (recombinant human IL-1β [14]) | Stoichiometry (recombinant human IL-1α [15]) | Stoichiometry (recombinant human IL-1β [16]) | Binder
1 | 0.694 | 0.766 | 8e-10 | 2e-09 | – | – | – | – | – | – | – | – | – | – | – | – | – | – | – | – | mIL-1α/β DVD-Ig binding protein (bispecific antibody, mouse IgG2a, kappa, V(anti-mIL-1β 10G11)-linker-V(anti-mIL-1α 9H10)-murine constant region (Cγ2a and Cκ); also called mDVD4-Ig; murine IL-1α/β DVD4-Ig) heavy: EVQLQQSGPELVKPGTSVKMSCKTSGYTFTSYVMHWVKQKPGQGLEWIGYIIPYNDNTKYNEKFKGKATLTSDKSSSTAYMELSSLTSEDSAVYYCARRNEYYGSSFFDYWGQGTTLTVSSAKTTAPSVYPLAPQVILKESGPGILQPSQTLSLTCSFSGFSLSTYGTAVNWIRQPSGKGLEWLAQIGSDDRKLYNPFLKSRITLSEDTSNSQVFLKITSVDTEDSATYYCANGVMEYWGLGTSVTVSSAKTTAPSVYPLAPVCGDTTGSSVTLGCLVKGYFPEPVTLTWNSGSLSSGVHTFPAVLQSDLYTLSSSVTVTSSTWPSQSITCNVAHPASSTKVDKKIEPRGPTIKPCPPCKCPAPNLLGGPSVFIFPPKIKDVLMISLSPIVTCVVVDVSEDDPDVQISWFVNNVEVHTAQTQTHREDYNSTLRVVSALPIQHQDWMSGKEFKCKVNNKDLPAPIERTISKPKGSVRAPQVYVLPPPEEEMTKKQVTLTCMVTDFMPEDIYVEWTNNGKTELNYKNTEPVLDSDGSYFMYSKLRVEKKNWVERNSYSCSVVHEGLHNHHTTKSFSRTPGK light: DIQMTQSPASLSASVGETVTITCRGSGILHNYLVWYQQKQGKSPQLLVYSAKILADGVPSRFSGSGSGTQYSLKINSLQPEDFGSYYCQHFWSTPFTFGSGTKLEIKRADAAPTVSIFPPSIVMTQTPKFLLVSAGDRVTITCKASQSVNHDVAWYQQMPGQSPKLLIYFASNRYTGVPDRFTGSGYGTDFTFTISTVQAEDLAVYFCQQDYSSPYTFGGGTKLEIKRADAAPTVSIFPPSSEQLTSGGASVVCFLNNFYPKDINVKWKIDGSERQNGVLNSWTDQDSKDSTYSMSSTLTLTKDEYERHNSYTCEATHKTSTSPIVKSFNRNEC
2 | 0.23 | – | 3.7e-10 | – | – | – | – | – | – | – | – | – | – | – | – | – | – | – | – | – | mouse anti-mouse IL-1β monoclonal antibody 10G11 (antibody, V domains shown, Mouse mAb from IL-1αβ double KO mice; also called anti-IL-1β (10G11)) VH: EVQLQQSGPELVKPGTSVKMSCKTSGYTFTSYVMHWVKQKPGQGLEWIGYIIPYNDNTKYNEKFKGKATLTSDKSSSTAYMELSSLTSEDSAVYYCARRNEYYGSSFFDYWGQGTTLTVSS VL: DIQMTQSPASLSASVGETVTITCRGSGILHNYLVWYQQKQGKSPQLLVYSAKILADGVPSRFSGSGSGTQYSLKINSLQPEDFGSYYCQHFWSTPFTFGSGTKLEIKR
3 | – | – | – | – | 2.3 | 3 | 1.1 | 2.3 | 3.1 | 2 to 3 | 2.83 | 0.000105 | 37000 | 2.6 | 0.00159 | 609000 | 1.5 | 1 | 1.8 | 1.5 | hIL-1α/β DVD1-Ig binding protein (bispecific antibody, human IgG1, kappa, 13F5.G5 variable domains fused directly (no linker) to the N-terminus of 3D12.E3 variable domains, human Cγ1/Cκ) heavy: not shown light: NIVLTQSPASLAVSLGQRATISCRASESVDSYGNSYMHWYQQKPGQPPKLLIYLASNLESGVPARFSGSGSRTDFTLTIDPVEADDAATYYCQQNNEDPFTFGSGTKLEIKRNIQMTQTTSSLSASLGDRVTISCRASQDISNCLNWYQQKPDGTVKLLIYYTSRLHSGVPSRFSGSGSGTDYSLTISNLEQEDIATYFCQQGKTLPYAFGGGTKLEINRRTVAAPSVFIFPPSDEQLKSGTASVVCLLNNFYPREAKVQWKVDNALQSGNSQESVTEQDSKDSTYSLSSTLTLSKADYEKHKVYACEVTHQGLSSPVTKSFNRGEC
